Data as given in the supplement of paper PMC11246515.
± gives the standard deviation of the averaged measurements.

Experiment: total protein half-life in vivo (active degradation + dilution); higher = more stable protein
[1] = E. coli NCM3722 delta-clpP delta-lon delta-hslV, growth: N-lim chemostat, doubling time 6 h
[2] = E. coli NCM3722 delta-clpP, growth: N-lim chemostat, doubling time 6 h
[3] = E. coli NCM3722 delta-hslV, growth: N-lim chemostat, doubling time 6 h
[4] = E. coli NCM3722 delta-lon, growth: N-lim chemostat, doubling time 6 h
[5] = E. coli NCM3722 delta-smpB, growth: N-lim chemostat, doubling time 6 h
[6] = wild type E. coli NCM3722, growth: C-lim chemostat, doubling time 3 h
[7] = wild type E. coli NCM3722, growth: C-lim chemostat, doubling time 6 h
[8] = wild type E. coli NCM3722, growth: C-lim chemostat, doubling time 12 h
[9] = wild type E. coli NCM3722, growth: N-lim chemostat, doubling time 6 h
[10] = wild type E. coli NCM3722, growth: N-lim chemostat, doubling time 12 h
[11] = wild type E. coli NCM3722, growth: P-lim chemostat, doubling time 12 h
[12] = wild type E. coli NCM3722, growth: P-lim chemostat, doubling time 6 h

Sequence	total protein half-life in vivo [1] [h]	total protein half-life in vivo [2] [h]	total protein half-life in vivo [3] [h]	total protein half-life in vivo [4] [h]	total protein half-life in vivo [5] [h]	total protein half-life in vivo [6] [h]	total protein half-life in vivo [7] [h]	total protein half-life in vivo [8] [h]	total protein half-life in vivo [9] [h]	total protein half-life in vivo [10] [h]	total protein half-life in vivo [11] [h]	total protein half-life in vivo [12] [h]
MMKTVNELIKDINSLTSHLHEKDFLLTWEQTPDELKQVLDVAAALKALRAENISTKVFNSGLGISVFRDNSTRTRFSYASALNLLGLAQQDLDEGKSQIAHGETVRETANMISFCADAIGIRDDMYLGAGNAYMREVGAALDDGYKQGVLPQRPALVNLQCDIDHPTQSMADLAWLREHFGSLENLKGKKIAMTWAYSPSYGKPLSVPQGIIGLMTRFGMDVTLAHPEGYDLIPDVVEVAKNNAKASGGSFRQVTSMEEAFKDADIVYPKSWAPYKVMEERTELLRANDHEGLKALEKQCLAQNAQHKDWHCTEEMMELTRDGEALYMHCLPADISGVSCKEGEVTEGVFEKYRIATYKEASWKPYIIAAMILSRKYAKPGALLEQLLKEAQERVK	4.89 ± 0.5	2.63	2.5 ± 0.084	3.03	2.82 ± 0.23	2.94 ± 0.24	4.89 ± 0.37	9.18 ± 0.49	2.53	3.87 ± 0.06		
MSTQLDPTQLAIEFLRRDQSNLSPAQYLKRLKQLELEFADLLTLSSAELKEEIYFAWRLGVH	5.63 ± 0.47	3.08 ± 0.39		2.3	1.29			1.9	0.632	1.08	0.514	
MKLSRRSFMKANAVAAAAAAAGLSVPGVARAVVGQQEAIKWDKAPCRFCGTGCGVLVGTQQGRVVACQGDPDAPVNRGLNCIKGYFLPKIMYGKDRLTQPLLRMKNGKYDKEGEFTPITWDQAFDVMEEKFKTALKEKGPESIGMFGSGQWTIWEGYAASKLFKAGFRSNNIDPNARHCMASAVVGFMRTFGMDEPMGCYDDIEQADAFVLWGANMAEMHPILWSRITNRRLSNQNVTVAVLSTYQHRSFELADNGIIFTPQSDLVILNYIANYIIQNNAINQDFFSKHVNLRKGATDIGYGLRPTHPLEKAAKNPGSDASEPMSFEDYKAFVAEYTLEKTAEMTGVPKDQLEQLAQLYADPNKKVISYWTMGFNQHTRGVWANNLVYNLHLLTGKISQPGCGPFSLTGQPSACGTAREVGTFAHRLPADMVVTNEKHRDICEKKWNIPSGTIPAKIGLHAVAQDRALKDGKLNVYWTMCTNNMQAGPNINEERMPGWRDPRNFIIVSDPYPTVSALAADLILPTAMWVEKEGAYGNAERRTQFWRQQVQAPGEAKSDLWQLVQFSRRFKTEEVWPEDLLAKKPELRGKTLYEVLYATPEVSKFPVSELAEDQLNDESRELGFYLQKGLFEEYAWFGRGHGHDLAPFDDYHKARGLRWPVVNGKETQWRYSEGNDPYVKAGEGYKFYGKPDGKAVIFALPFEPAAEAPDEEYDLWLSTGRVLEHWHTGSMTRRVPELHRAFPEAVLFIHPLDAKARDLRRGDKVKVVSRRGEVISIVETRGRNRPPQGLVYMPFFDAAQLVNKLTLDATDPLSKETDFKKCAVKLEKV	4.71		5.32 ± 0.18	3.56 ± 0.76	3.46 ± 0.36	2.03 ± 0.31	4.52 ± 0.7	8.61 ± 1.2	4.268 ± 0.041	5.85 ± 2.3	> 16	3.574 ± 0.034
MKIATIKTGLASLAMLPGLVMAAPAVADKADNAFMMICTALVLFMTIPGIALFYGGLIRGKNVLSMLTQVTVTFALVCILWVVYGYSLAFGEGNNFFGNINWLMLKNIELTAVMGSIYQYIHVAFQGSFACITVGLIVGALAERIRFSAVLIFVVVWLTLSYIPIAHMVWGGGLLASHGALDFAGGTVVHINAAIAGLVGAYLIGKRVGFGKEAFKPHNLPMVFTGTAILYIGWFGFNAGSAGTANEIAALAFVNTVVATAAAILGWIFGEWALRGKPSLLGACSGAIAGLVGVTPACGYIGVGGALIIGVVAGLAGLWGVTMLKRLLRVDDPCDVFGVHGVCGIVGCIMTGIFAASSLGGVGFAEGVTMGHQLLVQLESIAITIVWSGVVAFIGYKLADLTVGLRVPEEQEREGLDVNSHGENAYNA	5.75 ± 1.4	4.24 ± 0.22	5.51 ± 1.2	5.81 ± 2	4.6 ± 0.47				4.78 ± 0.62	8.59 ± 0.8		
MGDSILSQAEIDALLNGDSEVKDEPTASVSGESDIRPYDPNTQRRVVRERLQALEIINERFARHFRMGLFNLLRRSPDITVGAIRIQPYHEFARNLPVPTNLNLIHLKPLRGTGLVVFSPSLVFIAVDNLFGGDGRFPTKVEGREFTHTEQRVINRMLKLALEGYSDAWKAINPLEVEYVRSEMQVKFTNITTSPNDIVVNTPFHVEIGNLTGEFNICLPFSMIEPLRELLVNPPLENSRNEDQNWRDNLVRQVQHSQLELVANFADISLRLSQILKLNPGDVLPIEKPDRIIAHVDGVPVLTSQYGTLNGQYALRIEHLINPILNSLNEEQPK	4.44 ± 0.11					2.17 ± 0.39	3.96 ± 0.9	6.79 ± 0.98				
MVERTAVFPAGRHSLYAEHRYSAAIRSGDLLFVSGQVGSREDGTPEPDFQQQVRLAFDNLHATLAAAGCTFDDIIDVTSFHTDPENQFEDIMTVKNEIFSAPPYPNWTAVGVTWLAGFDFEIKVIARIPEQ	5.72 ± 0.59	4.29 ± 0.47	5.62 ± 1.5	5.45 ± 0.62	4.61 ± 0.57	3.61	6.32	11.5 ± 1.1	5.02 ± 0.087	8.83 ± 0.12	12.1 ± 0.51	5.604 ± 0.05
MQQLQNIIETAFERRAEITPANADTVTREAVNQVIALLDSGALRVAEKIDGQWVTHQWLKKAVLLSFRINDNQVIEGAESRYFDKVPMKFADYDEARFQKEGFRVVPPAAVRQGAFIARNTVLMPSYVNIGAYVDEGTMVDTWATVGSCAQIGKNVHLSGGVGIGGVLEPLQANPTIIEDNCFIGARSEVVEGVIVEEGSVISMGVYIGQSTRIYDRETGEIHYGRVPAGSVVVSGNLPSKDGKYSLYCAVIVKKVDAKTRGKVGINELLRTID [P0A9D8]	4.878 ± 0.043	4.24 ± 0.13	4.13 ± 0.23	4.507 ± 0.042	4.12 ± 0.12	2.97 ± 0.074	5.34 ± 0.39	9.591 ± 0.062	4.19 ± 0.11	6.89 ± 0.2	11 ± 0.57	5.91 ± 0.12
MVSLEKNDHLMLARQLPLKSVALILAGGRGTRLKDLTNKRAKPAVHFGGKFRIIDFALSNCINSGIRRMGVITQYQSHTLVQHIQRGWSFFNEEMNEFVDLLPAQQRMKGENWYRGTADAVTQNLDIIRRYKAEYVVILAGDHIYKQDYSRMLIDHVEKGARCTVACMPVPIEEASAFGVMAVDENDKIIEFVEKPANPPSMPNDPSKSLASMGIYVFDADYLYELLEEDDRDENSSHDFGKDLIPKITEAGLAYAHPFPLSCVQSDPDAEPYWRDVGTLEAYWKANLDLASVVPELDMYDRNWPIRTYNESLPPAKFVQDRSGSHGMTLNSLVSGGCVISGSVVVQSVLFSRVRVNSFCNIDSAVLLPEVWVGRSCRLRRCVIDRACVIPEGMVIGENAEEDARRFYRSEEGIVLVTREMLRKLGHKQER [P0A6V1]	6.16 ± 0.19		6.42 ± 1	5.94 ± 0.29	5.54 ± 0.52	3.34 ± 0.11	6.04 ± 0.72	12.2 ± 0.15	5.535 ± 0.042	9.99 ± 0.24	12.2 ± 0.32	6.46 ± 0.65
MKRLLILTALLPFVGFAQPINTLNNPNQPGYQIPSQQRMQTQMQTQQIQQKGMLNQQLKTQTQLQQQHLENQINNNSQRVLQSQPGERNPARQQMLPNTNGGMLNSNRNPDSSLNQQHMLPERRNGDMLNQPSTPQPDIPLKTIGP [P0ADX7]	5.56			4.65	3.81					7.44		
MMPEIGNGLLCLALGIALLLSVYPLWGVARGDARMMASSRLFAWLLFMSVAGAFLVLVNAFVVNDFTVTYVASNSNTQLPVWYRVAATWGAHEGSLLLWVLLMSGWTFAVAIFSQRIPLDIVARVLAIMGMVSVGFLLFILFTSNPFSRTLPNFPIEGRDLNPLLQDPGLIFHPPLLYMGYVGFSVAFAFAIASLLSGRLDSTYARFTRPWTLAAWIFLTLGIVLGSAWAYYELGWGGWWFWDPVENASFMPWLVGTALMHSLAVTEQRASFKAWTLLLAISAFSLCLLGTFLVRSGVLVSVHAFASDPARGMFILAFMVLVIGGSLLLFAARGHKVRSRVNNALWSRESLLLANNVLLVAAMLVVLLGTLLPLVHKQLGLGSISIGEPFFNTMFTWLMVPFALLLGVGPLVRWGRDRPRKIRNLLIIAFISTLVLSLLLPWLFESKVVAMTVLGLAMACWIAVLAIAEAALRISRGTKTTFSYWGMVAAHLGLAVTIVGIAFSQNYSVERDVRMKSGDSVDIHEYRFTFRDVKEVTGPNWRGGVATIGVTRDGKPETVLYAEKRYYNTAGSMMTEAAIDGGITRDLYAALGEELENGAWAVRLYYKPFVRWIWAGGLMMALGGLLCLFDPRYRKRVSPQKTAPEAV				6.56	4.59		> 8	> 16			9.96	6.24
MRKTVAFGFVGTVLDYAGRGSQRWSKWRPTLCLCQQESLVIDRLELLHDARSRSLFETLKRDIASVSPETEVVSVEIELHNPWDFEEVYACLHDFARGYEFQPEKEDYLIHITTGTHVAQICWFLLAEARYLPARLIQSSPPRKKEQPRGPGEVTIIDLDLSRYNAIASRFAEERQQTLDFLKSGIATRNPHFNRMIEQIEKVAIKSRAPILLNGPTGAGKSFLARRILELKQARHQFSGAFVEVNCATLRGDTAMSTLFGHVKGAFTGARESREGLLRSANGGMLFLDEIGELGADEQAMLLKAIEEKTFYPFGSDRQVSSDFQLIAGTVRDLRQLVAEGKFREDLYARINLWTFTLPGLRQRQEDIEPNLDYEVERHASLTGDSVRFNTEARRAWLAFATSPQATWRGNFRELSASVTRMATFATSGRITLDVVEDEINRLRYNWQESRPSALTALLGAEAENIDLFDRMQLEHVIAICRQAKSLSAAGRQLFDVSRQGKASVNDADRLRKYLARFGLTWEAVQDQHSSS				4.02								
MRNPTLLQCFHWYYPEGGKLWPELAERADGFNDIGINMVWLPPAYKGASGGYSVGYDSYDLFDLGEFDQKGSIPTKYGDKAQLLAAIDALKRNDIAVLLDVVVNHKMGADEKEAIRVQRVNADDRTQIDEEIIECEGWTRYTFPARAGQYSQFIWDFKCFSGIDHIENPDEDGIFKIVNDYTGEGWNDQVDDELGNFDYLMGENIDFRNHAVTEEIKYWARWVMEQTQCDGFRLDAVKHIPAWFYKEWIEHVQEVAPKPLFIVAEYWSHEVDKLQTYIDQVEGKTMLFDAPLQMKFHEASRMGRDYDMTQIFTGTLVEADPFHAVTLVANHDTQPLQALEAPVEPWFKPLAYALILLRENGVPSVFYPDLYGAHYEDVGGDGQTYPIDMPIIEQLDELILARQRFAHGVQTLFFDHPNCIAFSRSGTDEFPGCVVVMSNGDDGEKTIHLGENYGNKTWRDFLGNRQERVVTDENGEATFFCNGGSVSVWVIEEVI	5.23 ± 0.094	4.16 ± 0.08	4.036 ± 0.019	4.4 ± 0.36	4.26 ± 0.12	3.21 ± 0.87	6.29 ± 0.87	12.4 ± 0.27	4.2 ± 0.082	6.75 ± 0.24	13.4 ± 0.48	5.54 ± 0.59
MFEIHPVKKVSVVIPVYNEQESLPELIRRTTTACESLGKEYEILLIDDGSSDNSAHMLVEASQAENSHIVSILLNRNYGQHSAIMAGFSHVTGDLIITLDADLQNPPEEIPRLVAKADEGYDVVGTVRQNRQDSWFRKTASKMINRLIQRTTGKAMGDYGCMLRAYRRHIVDAMLHCHERSTFIPILANIFARRAIEIPVHHAEREFGESKYSFMRLINLMYDLVTCLTTTPLRMLSLLGSIIAIGGFSIAVLLVILRLTFGPQWAAEGVFMLFAVLFTFIGAQFIGMGLLGEYIGRIYTDVRARPRYFVQQVIRPSSKENE	5.758 ± 0.026		6.356 ± 0.027	6.156 ± 0.045	6.14 ± 0.12	2.84 ± 0.4	6.77 ± 1.7	11.6 ± 0.56	6.21 ± 0.57	12.6 ± 0.58	12.1 ± 0.46	6.08 ± 0.52
MIKVLFFAQVRELVGTDATEVAADFPTVEALRQHMAAQSDRWALALEDGKLLAAVNQTLVSFDHPLTDGDEVAFFPPVTGG		4.52 ± 0.36	4.61 ± 0.15	5.83 ± 0.47	4.6 ± 0.21	2.96 ± 0.2	4.76 ± 0.41	9.64 ± 0.42	4.25 ± 0.17	7.72 ± 0.16	11.7 ± 0.55	5.12 ± 0.3
